The results in this text go back to PMC8581553 (Cell reports, 2021).

Where only a bound is given, the exact number is not on record here.

To fix the notation:
B1: HA-SNAP-GluK3 (receptor, rat, UniProt P42264 32-919, looked up)
chain: MPHVIRIGGIFEYADGPNAQVMNAEEHAFRFSANIINRNRTLLPNTTLTYDIQRIHFHDSFEATKKACDQLALGVVAIFGPSQGSCTNAVQSICNALEVPHIQLRWKHHPLDNKDTFYVNLYPDYASLSHAILDLVQSLKWRSATVVYDDSTGLIRLQELIMAPSRYNIRLKIRQLPIDSDDSRPLLKEMKRGREFRIIFDCSHTMAAQILKQAMAMGMMTEYYHFIFTTLDLYALDLEPYRYSGVNLTGFRILNVDNAHVSAIVEKWSMERLQAAPRAESGLLDGVMMTDAALLYDAVHIVSVCYQRASQMTVNSLQCHRHKPWRFGGRFMNFIKEAQWEGLTGRIVFNKTSGLRTDFDLDIISLKEDGLEKVGVWSPADGLNITEVAKGRGPNVTDSLTNRSLIVTTLLEEPFVMFRKSDRTLYGNDRFEGYCIDLLKELAHILGFSYEIRLVEDGKYGAQDDKGQWNGMVKELIDHKADLAVAPLTITHVREKAIDFSKPFMTLGVSILYRKPNGTNPSVFSFLNPLSPDIWMYVLLAYLGVSCVLFVIARFSPYEWYDAHPCNPGSEVVENNFTLLNSFWFGMGSLMQQGSELMPKALSTRIIGGIWWFFTLIIISSYTANLAAFLTVERMESPIDSADDLAKQTKIEYGAVKDGATMTFFKKSKISTFEKMWAFMSSKPSALVKNNEEGIQRTLTADYALLMESTTIEYITQRNCNLTQIGGLIDSKGYGIGTPMGSPYRDKITIAILQLQEEDKLHIMKEKWWRGSGCPEEENKEASALGIQKIGGIFIVLAAGLVLSVLVAVGEFIYKLRKTAEREQRSFCSTVADEIRFSLTCQRRLKHKPQPPMMVKTDAVINMHTFNDRRLPGKDSMSCSTSLAPVFP
modifications: SNAP tag labelled with SBG-OG (Oregon Green)

Data set [1] deals with the molecule itself. Description: single-molecule pull-down.
Data set [2] has as its target B1. Description: single-molecule pull-down.

For the molecule B1, the stoichiometry N (commonly a count of units in the complex or per binding partner) in data set [1] came out at 4.

B2: HA-SNAP-GluK2 (receptor, rat, UniProt P42260 32-908, looked up)
chain: TTHVLRFGGIFEYVESGPMGAEELAFRFAVNTINRNRTLLPNTTLTYDTQKINLYDSFEASKKACDQLSLGVAAIFGPSHSSSANAVQSICNALGVPHIQTRWKHQVSDNKDSFYVSLYPDFSSLSRAILDLVQFFKWKTVTVVYDDSTGLIRLQELIKAPSRYNLRLKIRQLPADTKDAKPLLKEMKRGKEFHVIFDCSHEMAAGILKQALAMGMMTEYYHYIFTTLDLFALDVEPYRYSGVNMTGFRILNTENTQVSSIIEKWSMERLQAPPKPDSGLLDGFMTTDAALMYDAVHVVSVAVQQFPQMTVSSLQCNRHKPWRFGTRFMSLIKEAHWEGLTGRITFNKTNGLRTDFDLDVISLKEEGLEKIGTWDPASGLNMTESQKGKPANITDSLSNRSLIVTTILEEPYVLFKKSDKPLYGNDRFEGYCIDLLRELSTILGFTYEIRLVEDGKYGAQDDVNGQWNGMVRELIDHKADLAVAPLAITYVREKVIDFSKPFMTLGISILYRKPNGTNPGVFSFLNPLSPDIWMYILLAYLGVSCVLFVIARFSPYEWYNPHPCNPDSDVVENNFTLLNSFWFGVGALMQQGSELMPKALSTRIVGGIWWFFTLIIISSYTANLAAFLTVERMESPIDSADDLAKQTKIEYGAVEDGATMTFFKKSKISTYDKMWAFMSSRRQSVLVKSNEEGIQRVLTSDYAFLMESTTIEFVTQRNCNLTQIGGLIDSKGYGVGTPMGSPYRDKITIAILQLQEEGKLHMMKEKWWRGNGCPEEESKEASALGVQNIGGIFIVLAAGLVLSVFVAVGEFLYKSKKNAQLEKRSFCSAMVEELRMSLKCQRRLKHKPQAPVIVKTEEVINMHTFNDRRLPGKETMA
modifications: SNAP tag labelled with SBG-OG (Oregon Green); for smFRET with BG-LD555 and BG-LD655
Take B2: the “stoichiometry N” value in data set [1] came to 4.

B3: Halo-GluK5 (receptor, rat, UniProt Q63273 15-979, looked up)
chain: NPSCQVLSSLRMAAILDDQTVCGRGERLALALAREQINGIIEVPAKARVEVDIFELQRDSQYETTDTMCQILPKGVVSVLGPSSSPASASTVSHICGEKEIPHIKVGPEETPRLQYLRFASVSLYPSNEDVSLAVSRILKSFNYPSASLICAKAECLLRLEELVRGFLISKETLSVRMLDDSRDPTPLLKEIRDDKVSTIIIDANASISHLVLRKASELGMTSAFYKYILTTMDFPILHLDGIVEDSSNILGFSMFNTSHPFYPEFVRSLNMSWRENCEASTYPGPALSAALMFDAVHVVVSAVRELNRSQEIGVKPLACTSANIWPHGTSLMNYLRMVEYDGLTGRVEFNSKGQRTNYTLRILEKSRQGHREIGVWYSNRTLAMNATTLDINLSQTLANKTLVVTTILENPYVMRRPNFQALSGNERFEGFCVDMLRELAELLRFRYRLRLVEDGLYGAPEPNGSWTGMVGELINRKADLAVAAFTITAEREKVIDFSKPFMTLGISILYRVHMGRKPGYFSFLDPFSPAVWLFMLLAYLAVSCVLFLAARLSPYEWYNPHPCLRARPHILENQYTLGNSLWFPVGGFMQQGSEIMPRALSTRCVSGVWWAFTLIIISSYTANLAAFLTVQRMEVPVESADDLADQTNIEYGTIHAGSTMTFFQNSRYQTYQRMWNYMQSKQPSVFVKSTEEGIARVLNSRYAFLLESTMNEYHRRLNCNLTQIGGLLDTKGYGIGMPLGSPFRDEITLAILQLQENNRLEILKRKWWEGGRCPKEEDHRAKGLGMENIGGIFVVLICGLIIAVFVAVMEFIWSTRRSAESEEVSVCQEMLQELRHAVSCRKTSRSRRRRRPGGPSRALLSLRAVREMRLSNGKLYSAGAGGDAGAHGGPQRLLDDPGPPGGPRPQAPTPCTHVRVCQECRRIQALRASGAGAPPRGLGTPAEATSPPRPRPGPTGPRELTEHE
modifications: Halo tag labelled with CA-Sulfo549 (two-colour) or CA-Sulfo646 (three-colour)
Turning to B3, the “stoichiometry N” value in data set [2] is ≤ 2 GluK5 subunits in a di-heteromer.

B4: HA-SNAP-GluK1 (receptor, rat, UniProt P22756 31-949, looked up)
chain: QTSPQVLRIGGIFETVENEPVNVEELAFKFAVTSINRNRTLMPNTTLTYDIQRINLFDSFEASRRACDQLALGVAALFGPSHSSSVSAVQSICNALEVPHIQTRWKHPSVDSRDLFYINLYPDYAAISRAVLDLVLYYNWKTVTVVYEDSTGLIRLQELIKAPSRYNIKIKIRQLPPANKDAKPLLKEMKKSKEFYVIFDCSHETAAEILKQILFMGMMTEYYHYFFTTLDLFALDLELYRYSGVNMTGFRKLNIDNPHVSSIIEKWSMERLQAPPRPETGLLDGMMTTEAALMYDAVYMVAIASHRASQLTVSSLQCHRHKPCALGPRFMNLIKEARWDGLTGRITFNKTDGLRKDFDLDIISLKEEGTEKASGEVSKHLYKVWKKIGIWNSNSGLNMTDGNRDRSNNITDSLANRTLIVTTILEEPYVMYRKSDKPLYGNDRFEAYCLDLLKELSNILGFLYDVKLVPDGKYGAQNDKGEWNGMVKELIDHRADLAVAPLTITYVREKVIDFSKPFMTLGISILYRKPNGTNPGVFSFLNPLSPDIWMYVLLACLGVSCVLFVIARFTPYEWYNPHPCNPDSDVVENNFTLLNSFWFGVGALMQQGSELMPKALSTRIVGGIWWFFTLIIISSYTANLAAFLTVERMESPIDSADDLAKQTKIEYGAVRDGSTMTFFKKSKISTYEKMWAFMSSRQQSALVKNSDEGIQRVLTTDYALLMESTSIEYVTQRNCNLTQIGGLIDSKGYGVGTPIGSPYRDKITIAILQLQEEGKLHMMKEKWWRGNGCPEEDSKEASALGVENIGGIFIVLAAGLVLSVFVAIGEFLYKSRKNNDVEQKGKSSRLRFYFRNKVRFHGSKKESLGVEKCLSFNAIMEELGISLKNQKKLKKKSRTKGKSSFTSILTCHQRRTQRKETVA
modifications: SNAP tag labelled with SBG-OG (Oregon Green); for smFRET with BG-LD555 and/or BG-LD655
As for B4, the “stoichiometry N” value in data set [1] was 4.
